Where no end group is shown, it is not given here. [ ]: non-standard residue; d: D form. Aib = CC(C)(N)C(=O)O
Columns and labels:
[1] = biological target: isolated N-terminal extracellular domain of the GLP-1 receptor (nGLP-1R) (UniProt P43220); experiment: SPA competition: displacement of 125I-Exendin-4(9-39) from nGLP-1R
human GLP-1 receptor [2] = biological target: T1, human GLP-1 receptor (human, UniProt P43220 24-463); experiment: cell-based or functional assay
[3] = biological target: T2, isolated N-terminal extracellular domain of the GLP-1 receptor (nGLP-1R) (UniProt P43220 24-145, limits assumed, biotinylated with BNHS, immobilized on streptavidin-coated SPA beads); experiment: SPA competition: displacement of 125I-Exendin-4(9-39) from biotinylated nGLP-1R on streptavidin SPA beads
T2 construct: extracellular domain; also called N-terminal GLP-1 receptor
Method: The nGLP1R in 0.1M NaHCO₃ was biotinylated using 75 μg BNHS (Sigma H1759) to 1 mg protein. The biotinylated nGLP1R was subsequently dialyzed against PBS. All reagents and derivatives were diluted in PBS with 0.05% v/v Tween 20. […] The plates were incubated on a shaker at RT for 3 hours. The SPA particles were spun down by centrifugation for 10 min at 1500 rpm and the plates were counted in a TopCount-NXT (PerkinElmer).

human GLP-1 receptor [4] = biological target: T1, human GLP-1 receptor; experiment: SPA competition: displacement of 125I-GLP-1 from BHK tk-ts13 membranes with the human GLP-1 receptor
Method: Test compounds/peptides, membranes, SPA-particles and [¹²⁵I] are diluted in assay buffer. 25 ul (micro liter) of test compounds/peptides are added to Optiplate. Buffer is added (50 ul). Add 5-10 ug protein/sample (50 ul) corresponding to 0.1-0.2 mg protein/ml (to be preferably optimised for each membrane preparation). Add SPA-particles (Wheatgerm agglutinin SPA beads) RPNQ 0001) 0.5 mg/well (50 ul). […] The plates are sealed with PlateSealer. Incubate for 120 minutes at 30° C. while shaking. The plates are centrifuged (1500 rpm, 10 min) and counted in Topcounter.

| Molecule | EC50 (potency, stimulation of cAMP formation) (human GLP-1 receptor [2]) | further results |
| --- | --- | --- |
| liraglutide (peptide) |  | IC50 [1]: 1500 nM |
| HAEGTFTSDVSSYLEEQAAREFIAWLV-NH2 [[Glu22, Arg26]GLP-1 (7-33) Amide] | < 0.3 nM |  |
| HAEGTFTSDVSSYLEEQAVREFIAWLV-NH2 [[Glu22, Val25, Arg26] GLP-1 (7-33)amide] | < 0.3 nM |  |
| HAEGTFTSDVSSYLEGQAAKEFIAWLV (ends and bridges not checked, also called truncated natural GLP-1; truncated natural GLP-1(7-3)) peptide) [truncated natural, human GLP-1(7-33)] | 11.3 nM | IC50 [3]: 886 nM; IC50 (human GLP-1 receptor [4]): 241 nM |
| H[Aib]EGTFTSDVSSYKEEQAVREFIEWLV-NH2 (N-terminus assumed; SMILES CC[C@H](C)[C@H](NC(=O)[C@H](Cc1ccccc1)NC(=O)[C@H](CCC(=O)O)NC(=O)[C@H](CCCNC(=N)N)NC(=O)[C@@H](NC(=O)[C@H](C)NC(=O)[C@H](CCC(N)=O)NC(=O)[C@H](CCC(=O)O)NC(=O)[C@H](CCC(=O)O)NC(=O)[C@H](CCCCN)NC(=O)[C@H](Cc1ccc(O)cc1)NC(=O)[C@H](CO)NC(=O)[C@H](CO)NC(=O)[C@@H](NC(=O)[C@H](CC(=O)O)NC(=O)[C@H](CO)NC(=O)[C@@H](NC(=O)[C@H](Cc1ccccc1)NC(=O)[C@@H](NC(=O)CNC(=O)[C@H](CCC(=O)O)NC(=O)C(C)(C)NC(=O)[C@@H](N)Cc1c[nH]cn1)[C@@H](C)O)[C@@H](C)O)C(C)C)C(C)C)C(=O)N[C@@H](CCC(=O)O)C(=O)N[C@@H](Cc1c[nH]c2ccccc12)C(=O)N[C@@H](CC(C)C)C(=O)N[C@H](C(N)=O)C(C)C) [[Aib8, Lys20, Glu22, Val25, Arg26, Glu30] GLP-1 (7-33) Amide] | < 0.3 nM |  |
| HAEGTFTSDVSSYLEEQAAREFIAWLV-OH [[Glu22, Arg26]GLP-1(7-33)peptide] | < 0.3 nM |  |

Reference: patent US20140296131A1 (Novo Nordisk, published 2014)
